# Measurements: the RNAGym collection of RNA variant scans (doi:10.7554/elife.80360)
# B1: HDV Ribozyme (parent)
# chain: GGCCGGCAUGGUCCCAGCCUCCUCGCUGGCGCCGGCUGGGCAACAUUCCGAGGGGACCGUCCCCUCGGUAAUGGCGAAUGGGACCCA
# Variants of: B1
# Test: self-cleavage, relative activity (ratio to wild type); higher = more cleavage; co-transcriptional
row,Variant,self-cleavage
1,C21U G28U,0
2,C15A U65A,0.388
3,C19G A83U,0.0504
4,C48G C66G,0.906
5,G1U G52U,0.372
6,C58G A78G,0.723
7,C4G G38A,0
8,C15G C58U,0.482
9,A8U C15A,0.369
10,C19A C32U,0.0841
11,C21G C32G,0.19
12,U60C A78C,0.19
13,C4U A16C,0.434
14,C4A C64U,0.277
15,C13G C32U,0.0437
16,C57U G82U,0.234
17,A71G G81A,0.475
18,G11U U65C,0.19
19,U46A U65G,0.675
20,C44G C62U,0.758
21,G25C U72A,0.0791
22,G6U G59A,0.544
23,G6U C15A,0
24,U23G G81A,0.0426

row,Variant,self-cleavage
1,U9C A51G,0.962
2,C21G A51G,0.131
3,U9A G34U,0.374
4,C15U A87G,1.05
5,G11U G74A,0.114
6,U20C C48U,0.0791
7,C24A C58U,0.742
8,A8C C19U,0.0739
9,G6A G11C,0.222
10,A45C G74U,0.369
11,G34U C48G,0.151
12,G5C G38C,0.108
13,A16U G53A,1.01
14,G53C C66A,0.73
15,U9G G39C,0.196
16,C24G C32G,0.0504
17,C4U G34U,0.424
18,C32U G81U,0.185
19,G40C G74U,0.202
20,A45U A70U,0.989
21,U12C G17C,0.145
22,C32A U72A,0.156
23,C75G U79G,0.0791
24,G68C G80U,0.322

row,Variant,self-cleavage
1,U9A C32A,0.0898
2,G2A C13U,0.058
3,C57U C66U,0.87
4,C19A C66A,0.211
5,G40U G82C,0.157
6,G11C G59U,0.35
7,C14G G34C,0.138
8,A71C G82U,0.298
9,C61U C86G,0.847
10,G2U G81A,0
11,G34A U47C,0
12,C14U A70G,0.931
13,C18G C48A,0.123
14,G29U G67U,0.0817
15,U37A U72C,0
16,G28A G54U,0.0733
17,A42G C58U,0.617
18,C66U G67U,0.972
19,C4U G11A,0.225
20,C26A C62A,1.15
21,U46G G68C,0.396
22,C7A A70U,0.356
23,G25U U46C,0
24,C61A C66U,1.1

row,Variant,self-cleavage
1,G68A U69A,1
2,C3G G39C,0.157
3,C24U C63G,0.76
4,G39A U47G,0.185
5,G17C A42U,0.158
6,G38U G40A,0.222
7,C64G G74C,0.244
8,C57A A70C,0.773
9,G53A C84G,0.85
10,U9A C13U,1.36
11,C15U C64U,0.902
12,G6U U9A,0.623
13,C26U A42G,0.902
14,G38C C48U,0.161
15,G10C C32U,0.855
16,C36G G59A,0.169
17,G25C U79G,0.0594
18,C14G G31U,0.0386
19,C14A G35C,0.0536
20,C15U C41A,0.962
21,C14U U37G,0.199
22,C18G G25A,0.0504
23,C26U G76A,1.04
24,G28U C66A,0.197

row,Variant,self-cleavage
1,U20G C36U,0.155
2,G67U G82U,0.227
3,C13U U23A,0.571
4,A42U G80U,0.138
5,G68A A78G,0.727
6,G17U C61G,0.424
7,U27G C44U,0.688
8,C7A C14U,0.447
9,G17C U37C,0.344
10,C62G C63U,0.604
11,G55A C57G,1.07
12,C3G G76A,0.984
13,C44G G67A,0.65
14,C41A C57A,1.02
15,G17U G34C,0.0692
16,A16U G74A,0.388
17,G31U U60G,0.212
18,U72G G82A,0.0978
19,G50U A70C,0.795
20,C3A G39A,0.067
21,G35A A51C,0.467
22,G1C C61G,0.0504
23,G10U G52A,0.878
24,C4A C41G,0.0519

row,Variant,self-cleavage
1,C13G A43G,0.133
2,A45C G82C,0.256
3,G38C A51G,0.309
4,G39U U65G,0.583
5,G1A A70C,0.192
6,G67U A71G,1.12
7,G28U C33A,0.124
8,A78C G82A,0.106
9,C41A U72A,0.906
10,G31C C75A,0.13
11,C26G U47C,0.95
12,U9C C30G,0.0462
13,G34U U79A,0.138
14,G67U G81C,0.305
15,U20C C57A,0.0449
16,C22U C57U,0.817
17,G1U G35C,0.191
18,G38C G53U,0.266
19,G17C G81U,0.193
20,A45U C48A,0.7
21,G6C G67C,0.192
22,A42U C58G,0.443
23,C3G G35U,1.33
24,C14A G29U,0.0966

row,Variant,self-cleavage
1,C3A G11A,0.236
2,C41G C48G,0.682
3,C22A C61A,0.415
4,C61G C62G,1.05
5,G17U A43U,0.185
6,G6A A42U,0.283
7,C26U C36A,0
8,C32A G74A,0.148
9,G81U G82A,0.277
10,G39U A71C,0.308
11,U47G U60C,0.767
12,G29C A87U,0.0378
13,U37G C63U,0.151
14,U60C C61G,0.751
15,G2A A45C,0.0723
16,U46C G53A,0.796
17,G31A C44G,0.133
18,C22G A42C,0.185
19,C13U C48A,0.415
20,A56U G74U,0.718
21,C13U C63G,0.233
22,C26G C32U,0.743
23,A42C G59U,0.424
